Test results taken from the nanobody polyreactivity screen of Harvey et al. (2022).

experiment: yeast display, Sf9 membrane polyspecificity reagent, FACS + sequencing; frameworks hold sequencing errors
How it was run: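 Nanobodies came from a synthetic yeast display library in Saccharomyces cerevisiae BJ5465, induced with galactose for 36–48 hours and stained for 1 hour at 4 °C with 10% biotinylated, detergent-solubilized Sf9 membrane reagent. Cells were enriched on streptavidin microbeads and then FACS-sorted, with low and high (top ~1%) gates set on anti-HA fluorescence for expression and streptavidin fluorescence for reagent binding. Each polyreactivity label reflects the gate a clone came from. Genes were amplified by colony PCR, sequenced by MiSeq 2 × 250 and filtered by CDR length.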

Sequence	polyreactivity (PSR sort gate)
QVHLVESGGGLVQAGGSLRLSCAASGITFHGYAMGWYRQAPGKERELVAAISDSGSSTYYADSVKGRFTISRDNAKNTVYLQMNSLKPEDTAVYYCAAVSGFYDQYDYWGQGTQVTVSS	low polyreactivity
QVHLVESGGGLVQAGGSLRLSCAASGITFRSYAMGWYRQAPGKERELVAAISTSGGRTYYADSVKGRFTISRDNAKNTVYLQMNSLKPEDTAVYYCNKVGGVYGYYAYGLGYWGQGTQVTVSS	high polyreactivity
QVHLVESGGGLVQAGGSLRLSCAASGITFYIYAMGWYRQAPGTERELVAAISWRTGRTYYADSVKGRFTISRDNAKNTVYLQMNSLKPEYTAVYYCAAGVWVAGAFDYWGQGTQVNVSS	high polyreactivity
QVHLVESGGGLVQAGGSLRLSCAASGLIFARNAMGWYSQAPGKEREMVAAISRSGSTNYADSVKGRFTISRDNAKNTVYLQMNSLKPEDTAVYYCAADHARYLGFPRVDYWGQGTQVTVSS	low polyreactivity
QVHLVESGGGLVQAGGSLRLSCAASGLTFAWYAMGWYSQAPGKERELVAVISNGGSTNDADSVKGRFTISRDNAKNTVYLQMNSLKPEDTAVYYCAAGWVWSGNDYYYWGQGTQVTVSS	low polyreactivity
QVHLVESGGGLVQAGGSLRLSCAASGLTFGVFAMGWYRQAPGKERELVAAITWRGDTTYYADSVKGRFTISRDNAKNTVYLQMNSLKPEDTAVYYCNAVFFYHGTKPAFISHDYWGQGTQVTVSS	low polyreactivity
QVHLVESGGGLVQAGGSLRLSCAASGLTFIPNAMGWYRQAPGKERELVAAISGTGGSTYYADSVKGRFTISRDNAKNTVYLQMNRLKPEDTAVYYCAARRRYKSGYWGQGTQVTVSS	high polyreactivity
QVHLVESGGGLVQAGGSLRLSCAASGLTFQYYAMGWYRQAPGKQRELVAAISSRGGRTYYADSVKGRFTISRDNAKNTVYLQMNSLKPEDTAVYYCAAEWWAPDRVTRGRIYGYWGQGTQVTVSS	high polyreactivity
QVHLVESGGGLVQAGGSLRLSCAASGNIFTINAMGWYRQAPGKERDLVARITWGGGNTFYADSVKGRFTISRDNAKNTVYLEMNSLKPEDTAVYYCNAVGPYDYRYGKYDYWGQGTQVTVSS	low polyreactivity
QVHLVESGGGLVQAGGSLRLSCAASGNIIPGNAMGWYRQAPGKERELVAAISYSGVRTHYADSVKGRFTISRDNAKNTVYLQMNSLKPEDTAVYYCAASGEQDYDYWGQGTQVTVSS	low polyreactivity
QVHLVESGGGLVQAGGSLRLSCAASGNTFYWYVMGWYRQAPGKERDLVARITSSGGSTNYADSVKGRFTISRDNAKNTVYLQMISLKPEDTAVYYCAADDIYLYGGGTDYYYWGQGTQVTVSS	low polyreactivity
QVHLVESGGGLVQAGGSLRLSCAASGNTHVKNAMGWYRQAPGKERELVAAISSSGGRTYYGDSVKGRFTISRDNAKNTVYLQMNSLKPDDTAVYYCAARYPSGYYYWGQGTQVTVSS	high polyreactivity
QVHLVESGGGLVQAGGSLRLSCAASGRIFDYYAMGWYRQAPGKERELVARITSGGTTNYADSVKGRFTISRDNENNTVYLQMNSLKPEYTEVYYCKAHDYSDPLQMDYWGQGTQVTVSS	low polyreactivity
QVHLVESGGGLVQAGGSLRLSCAASGRIFGRNAMGWYRQAPGQERELVAAITSGSSTYYADSVKGRFTISRDNAKNTVYLQMNSLKPEDTAVYYCAARTIGYHYTGGYGYWGQGTQVTVSS	high polyreactivity
QVHLVESGGGLVQAGGSLRLSCAASGRIFGTYVMGWYRQAPGKERELVARITGGGSTNYADSVKGRFTISRDNAKNTVYLQMNSLKPEDTAVYYCARDYGPYLSPENPAPMDYWGQGTQVTVSS	low polyreactivity
QVHLVESGGGLVQAGGSLRLSCAASGRIFGYYAMGWYRQAPGKERELVAAISYSTGGTSTYADSVKGRFTISRDNAKNTVYLQMNSLKPEDTAVYYCAVRRQYRRAYSFSQSRYDYWGQGTQVTVSS	high polyreactivity
QVHLVESGGGLVQAGGSLRLSCAASGRIFNSYAMGWYRPAPGKERELVAAINWTDVSTYYADSVKGRFTLSRYNAKNTVYVELNSLTPDDTAVYYGPDVRWGSYTLSDDYWGQGTQVTVSS	low polyreactivity
QVHLVESGGGLVQAGGSLRLSCAASGRIFNSYAMGWYRQAPGKERELVAAISRNGGITYYADSVKGRFTISRDNAKNTVYLQMNSLKPEDTAVYYCNADCSRRRYSSDYWGQGTQVTVSS	high polyreactivity
QVHLVESGGGLVQAGGSLRLSCAASGRIFRGYAMGWYRQAPGKERELVATISWNGGSTYYADSVKGRFTISRDNAKNTVYLQMNSLKPEDTAVYYCNKRYWGGRYGYDYWGQGTQVTVSS	high polyreactivity
QVHLVESGGGLVQAGGSLRLSCAASGRIFSYYALGWSRQAPGKERELVAAISWSGSRTYYADSVKGRFTFSRDNAKNTVYFQMNSLKPEDTAVYYCDAEVWSTQGSATVQYDYCGQGTQVTVSS	high polyreactivity
QVHLVESGGGLVQAGGSLRLSCAASGRIFTFYAMGWYRQAPGKERELVAAISSSGVRTYYADSVKGRFTISRDNAKNTVYLQMNSLKPEDTAVYYCAAASRANSYRYNYWGQGTQVTVSS	high polyreactivity
QVHLVESGGGLVQAGGSLRLSCAASGRIFVFNAMGWYRQAPGKDRELVAAISRSAFSTYYADSVKGRFTISRDNAKNTVYLHMISLIPEDTAVYYCTDERTYWFFWEMDSWGQGTQVTVSS	low polyreactivity

Sequence	polyreactivity (PSR sort gate)
QVHLVESGGGLVQAGGSLRLSCAASGRIFYKNAMGWYRQAPGKERELVASITVGGGRTSYADSVKGRFTISRDNAKNTVYLQMNSLKPEDTAVFYCAATTGKTTFRATWYDYWGQCTQVTVSS	low polyreactivity
QVHLVESGGGLVQAGGSLRLSCAASGRIFYRNAMGWYRHAPGKERELVAAISRRGGSTSYADSVQGRFTISRDNAKNTVYLQMTSLKPEDTAVYYCAASRFRTGQEDDYWGQGTQVTVSS	high polyreactivity
QVHLVESGGGLVQAGGSLRLSCAASGRIFYSNVMGWYSQAPGKERELLAAISWSGGRTYYADSVKGRFTISRDNAKNTVYLQMNSLKPEDTAVYYCAAPGGVKYDYWGQGTQVTVSS	high polyreactivity
QVHLVESGGGLVQAGGSLRLSCAASGRIFYYYAMGWYRQAPGKERELVAGITITDASTYYADSVKGRFTISRDYAKNTVYLQMNSLKPEYTAVYYCNAVRYWEGRRYYYWGQGTQVTVSS	high polyreactivity
QVHLVESGGGLVQAGGSLRLSCAASGRILGKYSMGWYRQAPGKERELVAAIRLRGGSTYYADSVKGRFTISRDNAKNTVYLQMNSLKPEDTAVYYCAARYWDRSQAYNYWGQGTQVTVSS	high polyreactivity
QVHLVESGGGLVQAGGSLRLSCAASGRILVQNDMGWYRQAPGKERELVAAIRSDGSTSYADSVKGRFTISRDNAKNTVYLQMNSLKPEDTAVYYCAARIDWTGGEYDYWGQGTQVTVSS	low polyreactivity
QVHLVESGGGLVQAGGSLRLSCAASGRIYYRYAMGWYRTAPGKERELVAAISASGRTYYADSVKGRFTISRDNAKNTVYLQMNSLKTEDTAVYYCAKVAAGSLGSWGQGTQVTLSS	high polyreactivity
QVHLVESGGGLVQAGGSLRLSCAASGRLFFYALGWYRQSPRKERELVAAISWSGGSTYYADSVKGRFTISRDNAKNTVYLQMNSLKPEDTAVYYCAADYEGWGYDYRGDYWGQGTQVTVSS	low polyreactivity
QVHLVESGGGLVQAGGSLRLSCAASGRTFDRNAMGWYRQAPGKERELVAAISRNGGSTYYADSVKGRFTISRDNAKNTVYLQMNSLKPEDTAVYYCAAPRSVYDVARGDYWGQGTQVTVSS	high polyreactivity
QVHLVESGGGLVQAGGSLRLSCAASGRTFDVYAMGWYRQATGKERQLVATISYRSARTYYADSVKGRFTISRDNAKNTVYLQMNSLKPEDTAVYYCAAYFETWHGFGYWGQGTQVTVSS	high polyreactivity
QVHLVESGGGLVQAGGSLRLSCAASGRTFPSNVMGWYRQAPGKERELVAGITWRGASTYYADSVKGRFTISRDNAKNTVYLQMNSLKPEDTAVYYCAVRTQYRRYEYWGQGTKVTVSS	high polyreactivity
QVHLVESGGGLVQAGGSLRLSCAASGRTFRDYTMGWYRQAPGKEREFVAAISSTGSTNYADSVKGRFTISRDNAKNTVYLQMNSLKPEDTAVYYCAADGRRWLGWYGYYYWGQGTQVTVSS	low polyreactivity
QVHLVESGGGLVQAGGSLRLSCAASGRTFRYYAMGWYRQAPGKERELVAAITGSGGRTYYADSVKGRFTISRDNAKNTVYLQMNTLKPEDTAVYYCNRDPDIYICYDYWGQGTQVTVSS	high polyreactivity
QVHLVESGGGLVQAGGSLRLSCAASGRTFSTYAMGWYRQAPGKESELVAAISSGGGRTYYADSVKGRFTISRDNAKNTVYLQMNSLKPEDTAVYYCAADRYFRSRRSYEYWGQGTQVTVSS	low polyreactivity
QVHLVESGGGLVQAGGSLRLSCAASGRTFVAYAMGWYRQAPAKERELVARISSGGSTYYADSVKGRFTISRDNAKNTVYLQMNSLKPEDTAVYYCAADRGPFFVPWRRYDYWGQGTEVTVSS	low polyreactivity
QVHLVESGGGLVQAGGSLRLSCAASGRTFWDYAMRWYRQAPGKEREFVAAINTYGGRTYYADSVKGRFTISRDNAINTVYLQMNSLKPEDTAVYYCADRTRDRAYDSWGQGTEVTVSS	high polyreactivity
QVHLVESGGGLVQAGGSLRLSCAASGRTIGWNVMGWYRQAPGKERELVAAISGSGITYADSVKGRFTISRDNAKNTVYLQMNSLKPEDTAVYYCAARARRYTDEYDYWGQGTQVTLSS	low polyreactivity
QVHLVESGGGLVQAGGSLRLSCAASGRTLRSYAMGWYRQAPGKERELVAAINWRDTNTYYADSVKGRFTISRDNAKNTVYLQMNSLKPEDTAVYYCAARYYSRGWRYNYWGPGTQVTVSS	high polyreactivity
QVHLVESGGGLVQAGGSLRLSCAASGRTYIRNAMGWYRQAPGKERELVAAISSRGGRTYYADSVKGRFTISRDNAKNTVYLQMNSLKPEDTAVYYCAADFTYKLDGYDYWGQGTQVTVSS	high polyreactivity
QVHLVESGGGLVQAGGSLRLSCAASGSIFDYYAMGWYRQAPGKERELVAAITYDSGRTYYADSVKGRFTNSRDNAKNTVYLQMYSLKPEDTAVYYCNKYSYSWRYCPGTSGYDYWGQGTQVTVSS	low polyreactivity
QVHLVESGGGLVQAGGSLRLSCAASGSIFGYNAMGWYRQAPGKERELVAAITWRGGSTYYADSVKGRFTISRDNAKNTVYLQMNSLKPEDTAVYYCAAYVYQEYDYWGQGTQVTVSS	high polyreactivity
